# Laboratory results: article doi:10.1101/2023.08.01.551421 (bioRxiv, 2023)
# Key:
# [1] = target: the molecule itself; test: light scattering-based polymerization assay
# [2] = target: the molecule itself; test: cross-linking
# [3] = target: the molecule itself; test: GTP hydrolysis assay
protein,measurement,setting,value
"GBP1 Δ207-216 variant, farnesylated (natural protein, farnesyl moiety, C-terminal (CaaX box motif)) MASEIHMTGPMCLIENTNGRLMANPEALKILSAITQPMVVVAIVGLYRTGKSYLMNKLAGKKKGFSLGSTVQSHTKGIWMWCVPHPKKPGHILVLLDTEGLGDVEKGDNQNDSWIFALAVLLSSTFVYNSIGTINQQAMDQLYYVTELTHRIRSKSSPDENENEVEDSADFVSFFPDFVWTLRDFSLDLEADGQPLTPDEYLTYSLGGGSETFNLPRLCIRKFFPKKKCFVFDRPVHRRKLAQLEKLQDEELDPEFVQQVADFCSYIFSNSKTKTLSGGIQVNGPRLESLVLTYVNAISSGDLPCMENAVLALAQIENSAAVQKAIAHYEQQMGQKVQLPTETLQELLDLHRDSEREAIEVFIRSSFKDVDHLFQKELAAQLEKKRDDFCKQNQEASSDRCSALLQVIFSPLEEEVKAGIYSKPGGYRLFVQKLQDLKKKYYEEPRKGIQAEEILQTYLKSKESMTDAILQTDQTLTEKEKEIEVERVKAESAQASAKMLQEMQRKNEQMMEQKERSYQEHLKQLTEKMENDRVQLLKEQERTLALKLQEQEQLLKEGFQKESRIMKNEIQDLQTKMRRRKACTIS",binding result,[1],binds
"GBP1 Δ207-216 variant, non-farnesylated (natural protein) MASEIHMTGPMCLIENTNGRLMANPEALKILSAITQPMVVVAIVGLYRTGKSYLMNKLAGKKKGFSLGSTVQSHTKGIWMWCVPHPKKPGHILVLLDTEGLGDVEKGDNQNDSWIFALAVLLSSTFVYNSIGTINQQAMDQLYYVTELTHRIRSKSSPDENENEVEDSADFVSFFPDFVWTLRDFSLDLEADGQPLTPDEYLTYSLGGGSETFNLPRLCIRKFFPKKKCFVFDRPVHRRKLAQLEKLQDEELDPEFVQQVADFCSYIFSNSKTKTLSGGIQVNGPRLESLVLTYVNAISSGDLPCMENAVLALAQIENSAAVQKAIAHYEQQMGQKVQLPTETLQELLDLHRDSEREAIEVFIRSSFKDVDHLFQKELAAQLEKKRDDFCKQNQEASSDRCSALLQVIFSPLEEEVKAGIYSKPGGYRLFVQKLQDLKKKYYEEPRKGIQAEEILQTYLKSKESMTDAILQTDQTLTEKEKEIEVERVKAESAQASAKMLQEMQRKNEQMMEQKERSYQEHLKQLTEKMENDRVQLLKEQERTLALKLQEQEQLLKEGFQKESRIMKNEIQDLQTKMRRRKACTIS",stoichiometry N,[2],2
same,fold lower dimerization affinity than wild-type,[3],1.8 fold
"GBP1 Δ207-213 variant, non-farnesylated (natural protein) MASEIHMTGPMCLIENTNGRLMANPEALKILSAITQPMVVVAIVGLYRTGKSYLMNKLAGKKKGFSLGSTVQSHTKGIWMWCVPHPKKPGHILVLLDTEGLGDVEKGDNQNDSWIFALAVLLSSTFVYNSIGTINQQAMDQLYYVTELTHRIRSKSSPDENENEVEDSADFVSFFPDFVWTLRDFSLDLEADGQPLTPDEYLTYSLGGGSGGGSQKDETFNLPRLCIRKFFPKKKCFVFDRPVHRRKLAQLEKLQDEELDPEFVQQVADFCSYIFSNSKTKTLSGGIQVNGPRLESLVLTYVNAISSGDLPCMENAVLALAQIENSAAVQKAIAHYEQQMGQKVQLPTETLQELLDLHRDSEREAIEVFIRSSFKDVDHLFQKELAAQLEKKRDDFCKQNQEASSDRCSALLQVIFSPLEEEVKAGIYSKPGGYRLFVQKLQDLKKKYYEEPRKGIQAEEILQTYLKSKESMTDAILQTDQTLTEKEKEIEVERVKAESAQASAKMLQEMQRKNEQMMEQKERSYQEHLKQLTEKMENDRVQLLKEQERTLALKLQEQEQLLKEGFQKESRIMKNEIQDLQTKMRRRKACTIS",stoichiometry N,[2],2
same,fold lower dimerization affinity than wild-type,[3],3 fold
"GBP1 Δ207-213 variant, farnesylated (natural protein, farnesyl moiety, C-terminal (CaaX box motif)) MASEIHMTGPMCLIENTNGRLMANPEALKILSAITQPMVVVAIVGLYRTGKSYLMNKLAGKKKGFSLGSTVQSHTKGIWMWCVPHPKKPGHILVLLDTEGLGDVEKGDNQNDSWIFALAVLLSSTFVYNSIGTINQQAMDQLYYVTELTHRIRSKSSPDENENEVEDSADFVSFFPDFVWTLRDFSLDLEADGQPLTPDEYLTYSLGGGSGGGSQKDETFNLPRLCIRKFFPKKKCFVFDRPVHRRKLAQLEKLQDEELDPEFVQQVADFCSYIFSNSKTKTLSGGIQVNGPRLESLVLTYVNAISSGDLPCMENAVLALAQIENSAAVQKAIAHYEQQMGQKVQLPTETLQELLDLHRDSEREAIEVFIRSSFKDVDHLFQKELAAQLEKKRDDFCKQNQEASSDRCSALLQVIFSPLEEEVKAGIYSKPGGYRLFVQKLQDLKKKYYEEPRKGIQAEEILQTYLKSKESMTDAILQTDQTLTEKEKEIEVERVKAESAQASAKMLQEMQRKNEQMMEQKERSYQEHLKQLTEKMENDRVQLLKEQERTLALKLQEQEQLLKEGFQKESRIMKNEIQDLQTKMRRRKACTIS",binding result,[1],binds
"GBP1 D199K, non-farnesylated (natural protein) MASEIHMTGPMCLIENTNGRLMANPEALKILSAITQPMVVVAIVGLYRTGKSYLMNKLAGKKKGFSLGSTVQSHTKGIWMWCVPHPKKPGHILVLLDTEGLGDVEKGDNQNDSWIFALAVLLSSTFVYNSIGTINQQAMDQLYYVTELTHRIRSKSSPDENENEVEDSADFVSFFPDFVWTLRDFSLDLEADGQPLTPKEYLTYSLKLKKGTSQKDETFNLPRLCIRKFFPKKKCFVFDRPVHRRKLAQLEKLQDEELDPEFVQQVADFCSYIFSNSKTKTLSGGIQVNGPRLESLVLTYVNAISSGDLPCMENAVLALAQIENSAAVQKAIAHYEQQMGQKVQLPTETLQELLDLHRDSEREAIEVFIRSSFKDVDHLFQKELAAQLEKKRDDFCKQNQEASSDRCSALLQVIFSPLEEEVKAGIYSKPGGYRLFVQKLQDLKKKYYEEPRKGIQAEEILQTYLKSKESMTDAILQTDQTLTEKEKEIEVERVKAESAQASAKMLQEMQRKNEQMMEQKERSYQEHLKQLTEKMENDRVQLLKEQERTLALKLQEQEQLLKEGFQKESRIMKNEIQDLQTKMRRRKACTIS",binding result,[2],binds
"GBP1 D199K, farnesylated (natural protein, farnesyl moiety, C-terminal (CaaX box motif)) MASEIHMTGPMCLIENTNGRLMANPEALKILSAITQPMVVVAIVGLYRTGKSYLMNKLAGKKKGFSLGSTVQSHTKGIWMWCVPHPKKPGHILVLLDTEGLGDVEKGDNQNDSWIFALAVLLSSTFVYNSIGTINQQAMDQLYYVTELTHRIRSKSSPDENENEVEDSADFVSFFPDFVWTLRDFSLDLEADGQPLTPKEYLTYSLKLKKGTSQKDETFNLPRLCIRKFFPKKKCFVFDRPVHRRKLAQLEKLQDEELDPEFVQQVADFCSYIFSNSKTKTLSGGIQVNGPRLESLVLTYVNAISSGDLPCMENAVLALAQIENSAAVQKAIAHYEQQMGQKVQLPTETLQELLDLHRDSEREAIEVFIRSSFKDVDHLFQKELAAQLEKKRDDFCKQNQEASSDRCSALLQVIFSPLEEEVKAGIYSKPGGYRLFVQKLQDLKKKYYEEPRKGIQAEEILQTYLKSKESMTDAILQTDQTLTEKEKEIEVERVKAESAQASAKMLQEMQRKNEQMMEQKERSYQEHLKQLTEKMENDRVQLLKEQERTLALKLQEQEQLLKEGFQKESRIMKNEIQDLQTKMRRRKACTIS",binding result,[2],binds
"GBP1 D199A, farnesylated (natural protein, farnesyl moiety, C-terminal (CaaX box motif)) MASEIHMTGPMCLIENTNGRLMANPEALKILSAITQPMVVVAIVGLYRTGKSYLMNKLAGKKKGFSLGSTVQSHTKGIWMWCVPHPKKPGHILVLLDTEGLGDVEKGDNQNDSWIFALAVLLSSTFVYNSIGTINQQAMDQLYYVTELTHRIRSKSSPDENENEVEDSADFVSFFPDFVWTLRDFSLDLEADGQPLTPAEYLTYSLKLKKGTSQKDETFNLPRLCIRKFFPKKKCFVFDRPVHRRKLAQLEKLQDEELDPEFVQQVADFCSYIFSNSKTKTLSGGIQVNGPRLESLVLTYVNAISSGDLPCMENAVLALAQIENSAAVQKAIAHYEQQMGQKVQLPTETLQELLDLHRDSEREAIEVFIRSSFKDVDHLFQKELAAQLEKKRDDFCKQNQEASSDRCSALLQVIFSPLEEEVKAGIYSKPGGYRLFVQKLQDLKKKYYEEPRKGIQAEEILQTYLKSKESMTDAILQTDQTLTEKEKEIEVERVKAESAQASAKMLQEMQRKNEQMMEQKERSYQEHLKQLTEKMENDRVQLLKEQERTLALKLQEQEQLLKEGFQKESRIMKNEIQDLQTKMRRRKACTIS",binding result,[2],binds
"GBP1 D199A, non-farnesylated (natural protein) MASEIHMTGPMCLIENTNGRLMANPEALKILSAITQPMVVVAIVGLYRTGKSYLMNKLAGKKKGFSLGSTVQSHTKGIWMWCVPHPKKPGHILVLLDTEGLGDVEKGDNQNDSWIFALAVLLSSTFVYNSIGTINQQAMDQLYYVTELTHRIRSKSSPDENENEVEDSADFVSFFPDFVWTLRDFSLDLEADGQPLTPAEYLTYSLKLKKGTSQKDETFNLPRLCIRKFFPKKKCFVFDRPVHRRKLAQLEKLQDEELDPEFVQQVADFCSYIFSNSKTKTLSGGIQVNGPRLESLVLTYVNAISSGDLPCMENAVLALAQIENSAAVQKAIAHYEQQMGQKVQLPTETLQELLDLHRDSEREAIEVFIRSSFKDVDHLFQKELAAQLEKKRDDFCKQNQEASSDRCSALLQVIFSPLEEEVKAGIYSKPGGYRLFVQKLQDLKKKYYEEPRKGIQAEEILQTYLKSKESMTDAILQTDQTLTEKEKEIEVERVKAESAQASAKMLQEMQRKNEQMMEQKERSYQEHLKQLTEKMENDRVQLLKEQERTLALKLQEQEQLLKEGFQKESRIMKNEIQDLQTKMRRRKACTIS",binding result,[2],binds
